Measurements as given in patent US20230295281A1.

Experiments:
[1] = target: oxidized LDL (oxidized low-density lipoprotein) (UniProt P04114); assay: competition ELISA on coated oxLDL; wells preincubated with Pentaglobin; competitor: IgA autoantibodies of COVID-19 sera
[2] = target: oxidized LDL (oxidized low-density lipoprotein) (UniProt P04114); assay: competition ELISA on coated oxLDL; wells preincubated with Pentaglobin; competitor: IgG autoantibodies of COVID-19 sera

percent inhibition of autoantibody binding to oxLDL [1]: > 20%
percent inhibition of autoantibody binding to oxLDL [2]: > 20%
Substance: Pentaglobin (human polyclonal immunoglobulin infusion preparation enriched for IgM and IgA)
